Consider 47 variants from the Human Domainome abundance scans (Beltran et al. 2025).

± gives the uncertainty stated by the source.

The chains are these.
B1: Zinc finger homeobox protein 3, residues 2643 to 2698; numbered along this chain, Q15911 (parent)
chain: RLRTTITPEQLEILYQKYLLDSNPTRKMLDHIAHEVGLKKRVVQVWFQNTRARERK

Variants of B1 are the subject of the data set. Kind of data set: abundance fitness (aPCA) (normalised: wild type 0, dead -1); higher = more abundant; growth selection in yeast, the domain comes from the species named. The following applies: Homo sapiens.
In the case of RLRTTITPEQLEILYQKYLLDSNPTRKMLDHCAHEVGLKKRVVQVWFQNTRARERK [I32C], the abundance fitness is -0.749 ± 0.17.
RLRTTITPEQLEILYQKYLLDSNPTRKMLDHEAHEVGLKKRVVQVWFQNTRARERK [I32E]: the abundance fitness is -0.9 ± 0.13.
Consider RLRTTITPEQLEILYQKYLLDSNPTRKMLDHAAHEVGLKKRVVQVWFQNTRARERK [I32A], for which the abundance fitness is -0.886 ± 0.1.
As for RLRTTITPEQLEILYQKYLLDSNPTRKMLDHDAHEVGLKKRVVQVWFQNTRARERK [I32D], the figure is -1.02 ± 0.18; as for RLRTTITPEQLEILYQKYLLDSNPTRKMLGHIAHEVGLKKRVVQVWFQNTRARERK [D30G], -0.073 ± 0.077; as for RLRTTITPEQLEILYQKYLLDSNPTRKMLLHIAHEVGLKKRVVQVWFQNTRARERK [D30L], -0.435 ± 0.099.
As to RLRTTITPEQLEILYQKYLLDSNPTRKMLQHIAHEVGLKKRVVQVWFQNTRARERK [D30Q], the abundance fitness stood at 0.1 ± 0.14.
As to RLRTTITPEQLEILYQKYLLDSNPTRKMLCHIAHEVGLKKRVVQVWFQNTRARERK [D30C], the abundance fitness was -0.486 ± 0.14.
As for RLRTTITPEQLEILYQKYLLDSNPTRKMLYHIAHEVGLKKRVVQVWFQNTRARERK [D30Y], the abundance fitness was -0.269 ± 0.14.
RLRTTITPEQLEILYQKYLLDSNPTRKMLFHIAHEVGLKKRVVQVWFQNTRARERK [D30F]: the abundance fitness was -0.446 ± 0.22.
For RLRTTITPEQLEILYQKYLLDSNPTRKMLEHIAHEVGLKKRVVQVWFQNTRARERK [D30E] the value was -0.29 ± 0.11; for RLRTTITPEQLEILYQKYLLDSNPTRKMLVHIAHEVGLKKRVVQVWFQNTRARERK [D30V], -0.223 ± 0.094.
For RLRTTITPEQLEILYQKYLLDSNPTRKMLRHIAHEVGLKKRVVQVWFQNTRARERK [D30R] the value was -0.124 ± 0.081; for RLRTTITPEQLEILYQKYLLDSNPTRKMLAHIAHEVGLKKRVVQVWFQNTRARERK [D30A], -0.046 ± 0.084.
As for RLRTTITPEQLEILYQKYLLDSNPTRKMLPHIAHEVGLKKRVVQVWFQNTRARERK [D30P], the figure is -0.543 ± 0.12.
Regarding RLRTTITPEQLEILYQKYLLDSNPTRKMLKHIAHEVGLKKRVVQVWFQNTRARERK [D30K], the abundance fitness is -0.214 ± 0.13.
For the variant RLRTTITPEQLEILYQKYLLDSNPTRKMLTHIAHEVGLKKRVVQVWFQNTRARERK [D30T], the abundance fitness was -0.312 ± 0.13.
For RLRTTITPEQLEILYQKYLLDSNPTRKMLWHIAHEVGLKKRVVQVWFQNTRARERK [D30W] the value was -0.442 ± 0.12; for RLRTTITPEQLEILYQKYLLDSNPTRKMLSHIAHEVGLKKRVVQVWFQNTRARERK [D30S], -0.108 ± 0.085.
For RLRTTITPEQLEILYQKYLLDSNPTRKMLMHIAHEVGLKKRVVQVWFQNTRARERK [D30M], the abundance fitness is -0.314 ± 0.13.
In the case of RLRTTITPEQLEILYQKYLLDSNPTRKMLHHIAHEVGLKKRVVQVWFQNTRARERK [D30H], the abundance fitness was 0.007 ± 0.15.
For RLRTTITPEQLEILYQKYLLDSNPTRKMLIHIAHEVGLKKRVVQVWFQNTRARERK [D30I] the value was -0.071 ± 0.14.
With RLRTTITPEQLEILYQKYLLDSNPTRKMRDHIAHEVGLKKRVVQVWFQNTRARERK [L29R], the abundance fitness is -0.544 ± 0.079.
For RLRTTITPEQLEILYQKYLLDSNPTRKMNDHIAHEVGLKKRVVQVWFQNTRARERK [L29N], the abundance fitness is -0.724 ± 0.16.
For RLRTTITPEQLEILYQKYLLDSNPTRKMVDHIAHEVGLKKRVVQVWFQNTRARERK [L29V] the value was -0.043 ± 0.082.
For RLRTTITPEQLEILYQKYLLDSNPTRKMQDHIAHEVGLKKRVVQVWFQNTRARERK [L29Q] the value was -0.254 ± 0.12; for RLRTTITPEQLEILYQKYLLDSNPTRKMTDHIAHEVGLKKRVVQVWFQNTRARERK [L29T], -0.273 ± 0.097.
With RLRTTITPEQLEILYQKYLLDSNPTRKMPDHIAHEVGLKKRVVQVWFQNTRARERK [L29P], the abundance fitness is -0.8 ± 0.15.
On to RLRTTITPEQLEILYQKYLLDSNPTRKMSDHIAHEVGLKKRVVQVWFQNTRARERK [L29S], for which the abundance fitness was -0.488 ± 0.091.
Regarding RLRTTITPEQLEILYQKYLLDSNPTRKMLDGIAHEVGLKKRVVQVWFQNTRARERK [H31G], the abundance fitness is 0.198 ± 0.075.
On to RLRTTITPEQLEILYQKYLLDSNPTRKMLDSIAHEVGLKKRVVQVWFQNTRARERK [H31S], for which the abundance fitness worked out at 0.215 ± 0.086.
Consider RLRTTITPEQLEILYQKYLLDSNPTRKMLDWIAHEVGLKKRVVQVWFQNTRARERK [H31W], for which the abundance fitness was -0.251 ± 0.14.
For RLRTTITPEQLEILYQKYLLDSNPTRKMLDQIAHEVGLKKRVVQVWFQNTRARERK [H31Q] the value was 0.169 ± 0.15; for RLRTTITPEQLEILYQKYLLDSNPTRKMLDEIAHEVGLKKRVVQVWFQNTRARERK [H31E], 0.265 ± 0.1.
With RLRTTITPEQLEILYQKYLLDSNPTRKMLDDIAHEVGLKKRVVQVWFQNTRARERK [H31D], the abundance fitness was found to be 0.348 ± 0.1.
For the variant RLRTTITPEQLEILYQKYLLDSNPTRKMLDYIAHEVGLKKRVVQVWFQNTRARERK [H31Y], the abundance fitness is -0.014 ± 0.19.
For RLRTTITPEQLEILYQKYLLDSNPTRKMLDCIAHEVGLKKRVVQVWFQNTRARERK [H31C] the value was 0.096 ± 0.13.
As for RLRTTITPEQLEILYQKYLLDSNPTRKMLDPIAHEVGLKKRVVQVWFQNTRARERK [H31P], the figure is -0.836 ± 0.19.
As for RLRTTITPEQLEILYQKYLLDSNPTRKMLDNIAHEVGLKKRVVQVWFQNTRARERK [H31N], the figure is 0.315 ± 0.16; as for RLRTTITPEQLEILYQKYLLDSNPTRKMLDMIAHEVGLKKRVVQVWFQNTRARERK [H31M], 0.073 ± 0.12.
Regarding RLRTTITPEQLEILYQKYLLDSNPTRKMLDLIAHEVGLKKRVVQVWFQNTRARERK [H31L], the abundance fitness was 0.056 ± 0.095.
For RLRTTITPEQLEILYQKYLLDSNPTRKMLDAIAHEVGLKKRVVQVWFQNTRARERK [H31A] the value was 0.109 ± 0.083; for RLRTTITPEQLEILYQKYLLDSNPTRKMLDRIAHEVGLKKRVVQVWFQNTRARERK [H31R], -0.237 ± 0.088; for RLRTTITPEQLEILYQKYLLDSNPTRKMLDIIAHEVGLKKRVVQVWFQNTRARERK [H31I], 0.009 ± 0.16.
In the case of RLRTTITPEQLEILYQKYLLDSNPTRKMLDKIAHEVGLKKRVVQVWFQNTRARERK [H31K], the abundance fitness was -0.166 ± 0.15.
As for RLRTTITPEQLEILYQKYLLDSNPTRKMLDFIAHEVGLKKRVVQVWFQNTRARERK [H31F], the figure is -0.068 ± 0.14.
With RLRTTITPEQLEILYQKYLLDSNPTRKMLDVIAHEVGLKKRVVQVWFQNTRARERK [H31V], the abundance fitness worked out at 0.134 ± 0.08.
